From article PMC9972007 come the findings set out here.

Where “and” joins values, the source holds several entries; their conditions need not be identical. Equal entries are not always repeated.

The target of the data set is Optineurin (OPTN) (Homo sapiens, UniProt Q96CV9 1-577). In words: tryptophan fluorescence quenching titration.
Optineurin (OPTN), sequence (Q96CV9 whole entry): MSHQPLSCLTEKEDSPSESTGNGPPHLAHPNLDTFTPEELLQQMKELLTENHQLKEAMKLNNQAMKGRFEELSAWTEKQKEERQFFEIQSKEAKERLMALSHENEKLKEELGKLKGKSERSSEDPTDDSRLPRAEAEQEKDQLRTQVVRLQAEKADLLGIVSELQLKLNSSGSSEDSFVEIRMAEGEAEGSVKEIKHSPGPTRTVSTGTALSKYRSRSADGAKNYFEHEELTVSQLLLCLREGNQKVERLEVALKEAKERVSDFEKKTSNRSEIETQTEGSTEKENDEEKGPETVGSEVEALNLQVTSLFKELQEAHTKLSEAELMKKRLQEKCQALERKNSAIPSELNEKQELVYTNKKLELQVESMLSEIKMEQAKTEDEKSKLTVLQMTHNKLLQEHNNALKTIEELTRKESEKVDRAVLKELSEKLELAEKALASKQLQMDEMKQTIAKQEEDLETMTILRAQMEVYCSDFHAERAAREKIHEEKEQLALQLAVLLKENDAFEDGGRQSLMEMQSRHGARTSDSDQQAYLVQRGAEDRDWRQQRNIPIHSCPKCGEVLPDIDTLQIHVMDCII

In general, Kd refers to the concentration at which binding is half-saturated. Read a high Kd as a looser complex. In the case of UGUGUGUGUGUGUGUGUGUGUGUG (ssRNA) [UG-repeat RNA 24-mer], the Kd was 4.61 µM and 4.49 µM.
